Source: US20130251703A1 (Novartis, published 2013)

Tests used:
[1] = target: T1, human HER3 endogenously expressed on human cancer cells (SK-Br-3, BT-474, MCF7) (human, UniProt P21860 20-1342); assay: cell-based or functional assay
[2] = target: T2, Hu HER3: CD33-[Human HER3, residues 20-640]-TAG (human, UniProt P21860 20-640); assay: solution equilibrium titration (SET), IgG, ECL read-out
T2 construct: also called hu HER3-Tag; HER3-Tag; not shown: C-terminal TAG (e.g. FLAG TAG)

[3] = target: T1, human HER3 endogenously expressed on …; assay: cell-based or functional assay; remark: listed apart in the source
[4] = target: T1, human HER3 endogenously expressed on …; assay: cell-based or functional assay; remark: listed apart in the source

Binder	BT-474 pAkt % inhibition [1] [%]	BT-474 pAkt IC50 [1] [pM]	MCF7 pAkt % inhibition [1] [%]	MCF7 pAkt IC50 [1] [pM]	SK-Br-3 pAkt % inhibition [1] [%]	SK-Br-3 pAkt IC50 [1] [pM]	Kd [2] [nM]	BT-474 proliferation % inhibition [3] [%]	BT-474 proliferation IC50 [3] [pM]	MCF7 proliferation % inhibition [3] [%]	MCF7 proliferation IC50 [3] [pM]	SK-Br-3 proliferation % inhibition [3] [%]	SK-Br-3 proliferation IC50 [3] [pM]	BT474 pHER3 % inhibition [4] [%]	BT474 pHER3 IC50 [4] [pM]	MCF7 pHER3 % inhibition [4] [%]	MCF7 pHER3 IC50 [4] [pM]	SK-Br-3 pHER3 % inhibition [4] [%]	SK-Br-3 pHER3 IC50 [4] [pM]
MOR13658 (antibody, human IgG1, lambda, V domains shown, Tested as IgG) VH: QVQLVQSGAEVKKPGASVKVSCKASGYTFTSYDIHWVRQAPGQGLEWMGRIDPYSGNTNYAQKFQGRVTMTRDTSISTAYMELSRLRSEDTAVYYCARGSFYTRDSYFDVWGQGTLVTVSS VL: DIALTQPASVSGSPGQSITISCTGTSSDVGTYNQVSWYQQHPGKAPKLMIYGVSKRPSGVSNRFSGSKSGNTASLTISGLQAEDEADYYCASADHSYHTVFGGGTKLTVLG	56	461	81	341	92	172	0.027	34	423	49	174	42	191	67	571	83	459	74	347
MOR13655 (antibody, human IgG1, lambda, V domains shown, Tested as IgG) VH: QVQLVQSGAEVKKPGASVKVSCKASGYTFTSYDIHWVRQAPGQGLEWMGRIDPYSGNTNYAQKFQGRVTMTRDTSISTAYMELSRLRSEDTAVYYCARGSFYTRDSYFDVWGQGTLVTVSS VL: DIALTQPASVSGSPGQSITISCTGTSSDVGTYNQVSWYQQHPGKAPKLMIYGVSKRPSGVSNRFSGSKSGNTASLTISGLQAEDEADYYCSSATQKPDVTVFGGGTKLTVLG	50	–	79	251	86	62	0.066	31	141	46	86	39	74	61	19	80	149	69	90
MOR13654 (antibody, human IgG1, lambda, V domains shown, Tested as IgG) VH: QVQLVQSGAEVKKPGASVKVSCKASGYTFTSYDIHWVRQAPGQGLEWMGRIDPYSGNTNYAQKFQGRVTMTRDTSISTAYMELSRLRSEDTAVYYCARGSFYTRDSYFDVWGQGTLVTVSS VL: DIALTQPASVSGSPGQSITISCTGTSSDVGTYNQVSWYQQHPGKAPKLMIYGVSKRPSGVSNRFSGSKSGNTASLTISGLQAEDEADYYCQSRGEYRPGWVFGGGTKLTVLG	58	142	72	244	92	89	0.11	27	632	–	–	34	136	61	195	77	331	69	182
MOR13666 (antibody, human IgG1, lambda, V domains shown, Tested as IgG) VH: QVQLVQSGAEVKKPGASVKVSCKASGYTFTSYDIHWVRQAPGQGLEWMGRIDPYSGNTNYAQKFQGRVTMTRDTSISTAYMELSRLRSEDTAVYYCARGSFYTRDSYFDVWGQGTLVTVSS VL: DIALTQPASVSGSPGQSITISCTGTSSDVGTYNQVSWYQQHPGKAPKLMIYGVSKRPSGVSNRFSGSKSGNTASLTISGLQAEDEADYYCSTTTYSFHMVFGGGTKLTVLG	50	275	72	49	90	78	0.15	31	1120	–	–	39	870	65	420	73	168	69	166
